Assay results published in paper PMC7802950, “Characteristics and expression patterns of six α-galactosidases in cucumber (Cucumis sativus L.)” (PLoS ONE, 2021).

Experiments:
Settings in all cases: pH and temperature of Km assay not stated
[1] = system: T1, OC[C@H]1O[C@H](OC[C@H]2O[C@H](O[C@]3(CO)O[C@H](CO)[C@@H](O)[C@@H]3O)[C@H](O)[C@@H](O)[C@@H]2O)[C@H](O)[C@@H](O)[C@H]1O; test: Lineweaver-Burk plot, hydrolysis; assay type: biochemical, Cucumis sativus
T1 construct: coding region in pAcHLT, baculovirus/Sf9 insect cells; 6xHis tag removed by thrombin

[2] = system: T2, OC[C@H]1O[C@H](OC[C@H]2O[C@H](OC[C@H]3O[C@H](O[C@]4(CO)O[C@H](CO)[C@@H](O)[C@@H]4O)[C@H](O)[C@@H](O)[C@@H]3O)[C@H](O)[C@@H](O)[C@H]2O)[C@H](O)[C@@H](O)[C@H]1O; test: Lineweaver-Burk plot, hydrolysis; assay type: biochemical, Cucumis sativus
T2 construct: coding region in pAcHLT, baculovirus/Sf9 insect cells; 6xHis tag removed by thrombin

[3] = system: O=[N+]([O-])c1ccc(O[C@H]2O[C@H](CO)[C@H](O)[C@H](O)[C@H]2O)cc1; test: purified protein

CsGAL3 (Cucumis sativus), sequence (chain, as listed by the source): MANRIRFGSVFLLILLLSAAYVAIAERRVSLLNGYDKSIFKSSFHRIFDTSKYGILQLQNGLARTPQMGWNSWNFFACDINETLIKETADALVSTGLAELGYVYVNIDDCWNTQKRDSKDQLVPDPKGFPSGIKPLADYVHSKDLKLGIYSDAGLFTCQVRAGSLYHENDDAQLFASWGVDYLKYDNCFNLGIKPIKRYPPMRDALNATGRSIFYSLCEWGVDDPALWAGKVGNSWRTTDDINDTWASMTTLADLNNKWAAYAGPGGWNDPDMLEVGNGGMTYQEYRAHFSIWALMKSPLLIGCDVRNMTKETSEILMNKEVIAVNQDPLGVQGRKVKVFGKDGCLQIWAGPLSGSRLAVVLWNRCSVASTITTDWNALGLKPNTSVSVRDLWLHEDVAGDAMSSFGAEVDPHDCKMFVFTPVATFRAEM
CsGAL2 (Cucumis sativus), sequence (chain, as listed by the source): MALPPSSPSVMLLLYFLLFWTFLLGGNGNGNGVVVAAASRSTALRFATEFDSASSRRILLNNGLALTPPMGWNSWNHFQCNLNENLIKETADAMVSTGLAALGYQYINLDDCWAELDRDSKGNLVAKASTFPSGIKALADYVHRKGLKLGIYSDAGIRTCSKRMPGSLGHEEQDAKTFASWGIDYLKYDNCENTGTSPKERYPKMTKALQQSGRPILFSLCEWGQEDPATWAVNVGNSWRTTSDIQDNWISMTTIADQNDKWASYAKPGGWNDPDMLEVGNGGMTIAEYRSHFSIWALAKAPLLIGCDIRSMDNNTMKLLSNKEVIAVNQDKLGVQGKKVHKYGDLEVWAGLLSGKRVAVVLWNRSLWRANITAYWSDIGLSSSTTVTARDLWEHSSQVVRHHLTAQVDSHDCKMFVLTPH
CsGAL1 (Cucumis sativus), sequence (chain, as listed by the source): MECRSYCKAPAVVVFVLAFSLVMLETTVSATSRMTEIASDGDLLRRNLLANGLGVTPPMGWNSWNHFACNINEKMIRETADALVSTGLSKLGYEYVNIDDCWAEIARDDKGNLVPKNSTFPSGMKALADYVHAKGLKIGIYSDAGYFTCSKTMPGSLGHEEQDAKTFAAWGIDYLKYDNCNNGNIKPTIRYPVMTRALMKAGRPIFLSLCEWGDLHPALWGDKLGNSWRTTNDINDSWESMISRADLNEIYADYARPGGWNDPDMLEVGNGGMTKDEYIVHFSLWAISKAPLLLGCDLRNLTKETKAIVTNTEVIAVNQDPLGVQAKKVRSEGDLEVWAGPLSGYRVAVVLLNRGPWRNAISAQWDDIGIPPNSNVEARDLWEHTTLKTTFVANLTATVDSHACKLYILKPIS

Row | Substance | Km [1] [mM] | Km [2] [mM] | Km [3] [mM]
1 | CsGAL1 (Cucumis sativus) | 4.71 ± 0.85 | 12.3 ± 1.92 | 0.89 ± 0.12
2 | CsGAL2 (Cucumis sativus) | 5.63 ± 0.67 | 11.85 ± 2.05 | 1.35 ± 0.23
3 | CsGAL3 (Cucumis sativus) | 3.24 ± 0.70 | 18.92 ± 2.56 | 0.99 ± 0.10
